Experimental findings from publication PMC7211019 (2020) are described below.

Ends that are not written are not given here.

Assay [1] concerns the target T1, Par3 PDZ3 (rat, UniProt Q9Z340 582-685). Put plainly: FP.
The target in assay [2] is T1, Par3 PDZ3. In words: FP; 5% 1,6-hexanediol.
The target in assay [3] is T1, Par3 PDZ3. In words: FP; 25% 1,6-hexanediol.
Assay [4] deals with T1, Par3 PDZ3. In words: FP; 0% 1,6-hexanediol.
Another assay addresses Par3 PDZ2 (Rattus norvegicus). Put plainly: FP.
For a further assay, the target named is Par3 PDZ3 G600,602 A (rat, UniProt Q9Z340 582-685, G600,602 A (G600A) | G600,602 A (G602A)). Put plainly: FP.
The next assay deals with Par3 PDZ1 (rat, UniProt Q9Z340 1-1337). Put plainly: FP.
Assay [5] concerns the target T1, Par3 PDZ3. Put plainly: FP; 10% 1,6-hexanediol.

T1 sequence (Q9Z340 582-685): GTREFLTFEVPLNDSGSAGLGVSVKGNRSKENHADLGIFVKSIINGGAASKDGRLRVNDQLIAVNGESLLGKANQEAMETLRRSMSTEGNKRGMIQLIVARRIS
Chain of Par3 PDZ3 G600,602 A (Q9Z340 582-685 G600A/G602A): as the sequence (Q9Z340 582-685) above, with G19A, G21A counted along it
Chain of Par3 PDZ2 (Rattus norvegicus) (chain, as listed by the source): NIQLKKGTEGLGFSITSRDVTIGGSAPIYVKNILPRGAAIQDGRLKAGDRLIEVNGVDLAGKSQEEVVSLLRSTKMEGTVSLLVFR
Chain of Par3 PDZ1 (Q9Z340 whole entry): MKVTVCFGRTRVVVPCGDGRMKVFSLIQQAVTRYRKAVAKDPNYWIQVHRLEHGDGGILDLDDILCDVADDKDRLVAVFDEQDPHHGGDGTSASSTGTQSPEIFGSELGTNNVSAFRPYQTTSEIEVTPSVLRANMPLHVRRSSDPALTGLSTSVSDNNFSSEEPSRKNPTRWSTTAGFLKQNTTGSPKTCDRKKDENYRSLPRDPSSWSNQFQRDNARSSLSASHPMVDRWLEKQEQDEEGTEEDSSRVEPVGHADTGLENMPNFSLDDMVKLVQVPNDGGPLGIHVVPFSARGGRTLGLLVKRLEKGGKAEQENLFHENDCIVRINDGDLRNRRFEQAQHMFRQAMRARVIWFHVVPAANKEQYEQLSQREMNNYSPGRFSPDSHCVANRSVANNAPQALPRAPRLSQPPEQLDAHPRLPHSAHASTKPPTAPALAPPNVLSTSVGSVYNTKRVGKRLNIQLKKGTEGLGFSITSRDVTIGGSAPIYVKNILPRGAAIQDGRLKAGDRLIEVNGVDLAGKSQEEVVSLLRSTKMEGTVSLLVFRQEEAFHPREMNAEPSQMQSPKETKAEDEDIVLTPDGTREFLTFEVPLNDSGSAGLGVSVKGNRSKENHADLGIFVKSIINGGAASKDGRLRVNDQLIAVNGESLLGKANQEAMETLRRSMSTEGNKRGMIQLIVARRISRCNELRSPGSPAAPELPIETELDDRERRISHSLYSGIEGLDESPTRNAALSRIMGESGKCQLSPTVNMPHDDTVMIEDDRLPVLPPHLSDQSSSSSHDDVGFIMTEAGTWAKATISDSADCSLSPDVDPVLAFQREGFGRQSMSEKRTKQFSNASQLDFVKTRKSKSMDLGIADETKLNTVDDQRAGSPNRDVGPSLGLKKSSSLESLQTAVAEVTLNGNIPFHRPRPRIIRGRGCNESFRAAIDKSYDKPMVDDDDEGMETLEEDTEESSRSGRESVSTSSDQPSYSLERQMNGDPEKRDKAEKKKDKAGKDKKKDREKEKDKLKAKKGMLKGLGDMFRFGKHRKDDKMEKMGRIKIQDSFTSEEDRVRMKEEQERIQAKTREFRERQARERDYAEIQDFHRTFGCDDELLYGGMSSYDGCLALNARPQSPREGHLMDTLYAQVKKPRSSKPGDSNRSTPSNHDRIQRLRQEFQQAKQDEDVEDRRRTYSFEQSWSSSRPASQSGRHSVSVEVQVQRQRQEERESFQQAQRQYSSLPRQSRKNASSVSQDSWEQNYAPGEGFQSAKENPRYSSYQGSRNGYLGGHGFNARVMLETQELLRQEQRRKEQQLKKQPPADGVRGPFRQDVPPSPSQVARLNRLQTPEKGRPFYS

VEEHGPAITL (also: FITC label, position not given here) [FITC-labeled Par6γ PBM peptide] had a Kd with Par3 PDZ3 [1] of 1.3 µM.
Same read-out and setting: the same measure for MRGDVSGFSL (also: FITC label, position not given here) [FITC-labeled Par6α PBM peptide]: 172 µM.
With LEEDGTIITL (also: FITC label, position not given here) [FITC-labeled Par6β PBM peptide], the Kd worked out at 4.9 µM in the assay with Par3 PDZ3 [2]; 22 µM with Par3 PDZ3 [3]; 1.1 µM in the assay with Par3 PDZ3 [4]; 161 µM with Par3 PDZ2; 20 µM with Par3 PDZ3 G600,602 A; 104 µM in the assay with Par3 PDZ1. In addition, the Kd with Par3 PDZ3 [1] came out at 1.1 µM; with Par3 PDZ3 [5], 9.7 µM.

As usually defined, the Kd is the constant that tells how readily two partners part at equilibrium. A lower Kd goes with a tighter complex.
